# Measured values published in a protein production outcome set (Wang et al. 2014).
# Assay: label from the status in PepcDB records
row,Sequence,protein production
1,MTFEDLHEYLDYLAKKNDLVTITEEVDPNLDLTYILSEEERMGRGRTILFKNVKGSQVPAVGNLFSTNEKLKAVLGDDPYSIGVKIADIVKPPRDSESFIGKGLEMMRELSGLRPKVSNSIPSGYSELEKVDLYRYPICKTWPDDGGPFITLPLVITKDPSTGIRNMGMYRMQVYDSETTGMHWHIHKGGSENFLKEKEKGKAMDVAVVIGSDPLTIFSAVAPLPNGIDEFMFRGLISRKRSELVKGKTVDLEYPRNFEIVLEGYIDPSETRVEGPFGDHTGYYSLEEEFPVFHVKNIIERNDRIYPTTIVGKLWHEDVVLGKAVERMFLPLIQMVLPEVVDINTMEEAVFHNMVIVSIKKRYPGHAKKVMFALWGLGQLMFSKIIVVVDDDINIHNRKELIWAMTTRIDPDRDVIIIPGTVTDSLDHAAPLFNYGSKMGIDATKKDKSEGYTRRWPDVLEMPKDVVDKVRQIMKNNRLIQLEHHHHHH,failed
2,MTFEEFKDRLFALAKKNGVEVQISFLETREFSLRLANGDLDQYTDAGKFNVEIKVLKDGKTGTFRTQVLENPEKCFEEALSNLQVKDSEEKEYFFEGGKEYREMETYVGRFEKLSVKEKMDMAKKAHESAAKDERVVMVPTVMYKDMVIKKIITNTLGLDVESQMDGGFLFAMAIARDANPRSGSWYELARTPEDLNPEEIGKRAAEEAISLIGSKTIPSGKYPVLMRNTALLDLMEMFIPMISAENVQKNLSPLKGKLGEQVGNPAVSIKDLPYHPKGLSSTPFDDEGVPTTEKFVLENGVLKTFLHNLKTARKEGVEPTGNGFVGGIRPVNLMLMPGEKSFEELLKEMDRGVVITEVEGMHAGANSISGEFSLFAKGYWVENGEIAHGVEDITISGNFLDLLRKIVLVGNDVKVSQHTIAPSVLVEVLDVAGK,not failed
3,MTFKRSLFFLLLLLSVATARAQIDVDRVITIGRNALYFNDYVVSIGYFNQVVGLRPWMAEPYFYRGIAKISLEDYTGAEADASACLQRNALIPKAYLLRGVARQNLGKIDSAIQDYRRGLELMPNDEGMLVNLTGVLTDSKRYAEAREGVAELLKFYPKSKQAHIALSAIELGEQDTVAAIRELNEVLRMDSLFAPAYSQMAMLHLKSKRNAEAMAALDKAIELEPSELSNYINRGVIRYQSNDLRGAMDDYSHVVRQKPNDKLARFNRALLRSYLGDVNNAIEDFDVVIRLEPENYHALYNRAILLTQINENRKAITDFDKVLGHYPDFVVGYYARSQAKKALGDTRGAERDYWRAFDIEKAAQSKTKKTKKSSSSTSTKETREDSDETIEKFNLLVVSEKSSEKRTRYSSRIRGRIQDNDVEVQPSPLFVLSYYEQSSSEEVPRVYYSEAIARFNDKKVLPKRLKPINREVALSQEQVAYHEQDITEISERTAGNADLCFRRALDYMLIQNLEQAIVDFDQAVELNKQFALAYFGRAIARAKLVEARQGASFIHQEAETVNAMTKALITTPRTNAMGVPAAAESPERKPAISDVDGELVMRDLNRTIELDPNFAYAYYNRAVLLARRGDTDAALSDYDRAIKAYPEFADAYFNRGLLLLSRGKAKEGIADLSRAGEYGLYKAYNIIKRMSTKS,failed
4,MTFPSVALVVVYVGGLVILGFGMAKIVYVPMALYFDWLYRSICARHRYSVLSDRPLVSVIVPGYNEAVVITGCVESILASRYLRLEVILVDDGSTDETASIMEGLAQQYDRVRFLSQANAGKGAALNCGIAAALGDILMFVDADGVFAPDTLIHMLEGFDDPKVGAVCGDDRPVNLDRLQTMMLAILSHVGTGLVRRALSLMNCLPIVSGNIGAFRSDLVRELGGFHEDTLGEDLELTWRVYKAGYRVRFQPKALVYAESPSTMGGLWRQRVRWSRGLLQTLRLHSGMLGSRRYGMFGAFLVFNAITMVLIPILQLVVLALLPFLYVAGMGPVPAEVLAILGWLGVFVSLALIVFSVGLNRSWRDLRFLWTLPLWPFYSVFVGLALASAIVKEIRGSPARWNKLQRTGIKSVTATHSVTSTDVSQRQEAHA,failed
5,MTFSQMILNLQNYWQEQGCAIMQPYDMPAGAGTFHPATFLRSLGKKPWAAAYVAPSRRPTDGRYGENPNRLGAYYQFQVLIKPSPDNIQELYLKSLENLGFDLKSHDIRFVEDNWESPSLGAWGLGWEVWLDGMEVTQFTYFQQVGGIAVDLVSAEITYGLERIAMYLQNVDNVYDIVWSEFNGEKIKYADVHKQSEYEFSKYNFEVSDVKILNEQFENSYKECKNILEQGLALPAYDYCMLAAHTFNLLDARGAISVAQRQDYMLKIRELSKNCAEIYKKNLNEAE,not failed
6,MTGEKIRSLRRDHKPSKEEGDLLEPGDEEAAAALGGTFTRSRIGKGGKACHKIFSNHHHRLQLKAAPASSNPPGAPALPLHNSSVTANSQSPALLAGTNPVAVVADGGSCPAHYPVHECVFKGDVRRLSSLIRTHNIGQKDNHGNTPLHLAVMLGNKECAHLLLAHNAPVKVKNAQGWSPLAEAISYGDRQMITALLRKLKQQSRESVEEKRPRLLKALKELGDFYLELHWDFQSWVPLLSRILPSDACKIYKQGINIRLDTTLIDFTDMKCQRGDLSFIFNGDAAPSESFVVLDNEQKVYQRIHHEESEMETEEEVDILMSSDIYSATLSTKSISFTRAQTGWLFREDKTERVGNFLADFYLVNGLVLESRKRREHLSEEDILRNKAIMESLSKGGNIMEQNFEPIRRQSLTPPPQNTITWEEYISAENGKAPHLGRELVCKESKKTFKATIAMSQEFPLGIELLLNVLEVVAPFKHFNKLREFVQMKLPPGFPVKLDIPVFPTITATVTFQEFRYDEFDGSIFTIPDDYKEDPSRFPDL,failed
7,MTGKKTLSIVGASGYAGGEFLRLALSHPYLEVKQVTSRRFAGEPVHFVHPNLRGRTNLKFVPPEKLEPADILVLALPHGVFAREFDRYSALAPVLVDLSADFRLKDPELYRRYYGEHPRPDLLGRFVYAVPELYREALKGADWIAGAGCNATATLLGLYPLLKAGVLKPTPIFVTLLISTSAGGAEASPASHHPERAGSIRVYKPTGHRHTAEVVENLPGRPEVHLTAIATDRVRGILMTAQCFVQDGWSERDVWQAYREAYAGEPFIRLVKQKKGVHRYPDPRFVQGTNYADIGFELEEDTGRLVVMTAIDNLVKGTAGHALQALNVRMGWPETLGLDFPGLHP,not failed
8,MTGMRKTLKATLAEARAQVEAALKEEGFGILTEIDVAATLKAKLGLEKPPYLILGACNPNLAARALEALPEIGLLLPCNVVLREAEEGVEVLIQDPKEMFRVLPEATQRALAPVAEEARTRLSRALSRL,not failed
9,MTGPTPTEAVDITVSVGGFKVGDQNYPINPKITFTNNTGQAIPGGTEFQFDIPVSAPDNAKDQSGGGLKVIASGHTRANNIGGLDGVMHRVSFSLPAWKDLPAGGTYELDMVYYLPISGPANYSVISGGKEFAFKFEQPDLPIGDLNAGTGGGGTTEPGSCDTAGLVTYPNLPQTDLEHHHHHH,failed
10,MTGRDLMLITGISPIILRFLFGGTAVVASRLVARSFGGRLGGVFAAFPAVYLAAVAGLSMEYEGSELLSVSEQLSRGALVGMSADICCALAASYLILKYGWKTGLSLSLLFWAVLAPVIYFTWF,failed
11,MTGVLTADRPPKPAAPRRYTVALARDEDDVRAAQRLRHDVFAGEMGALLASPQPGHDVDAFDAYCDHLLVREETTGQVVGTYRLLPPERAAVAGRLYAESEFDLAALDPIRSSLVEVGRSCVHPDHRDGAVIGLVWAGIARYMTDRGHAWLAGCCSLPLADGGALAAGAWDRVRTKHLAPEEYRVRPLLPWVPRPAAPAARTELPALLRGYLRLGAWVCGEPAHDVDFGVADLYVLLPMNRVDPRYLRHFLSLAPA,failed
12,MTHASILISVIIPAYNAAKFLPDAIASVEKQTFTDWELLIINDGSTDDTIEVVREHQKTSDCIYLINQTNQGVSAARNQGVAHSQGQIIAFLDADDQWLPDKLSQHWQHFQSNSRLGVSFAQVEILDQAGEPTGQVSTSRLNDLKPEYFLSENPTTTTSNWVIRKEVFTQVGGFCLDMSYSEDLEWLLRVSSTTDWQIQGINQVLTRYRTSSSGLSSNLYYMEAGWKQLVNRARIYAPQLVHNHFALAQAVHLRYLARRAFRLKLPARVGVDFITRALISDWRLLFHQPQRTFFTLLAVFGALVMERVFGLNTHRGSTAKAEPFRGSIP,failed
13,MTHPATVYSLSTRLLHWSMAFCFIGAIVLAYFVIWVLGHDHPQRLPVLNLHWVLGLLVGLLLVPRIVSRLRGPRLPAVPGTPLEHRLAHYAHLSLYALMLVMPLTGYVGTRLPTDFGLFVVPSFKDTALFAWISQTLNLSWEAFEKPFDAVHRVVGLWLSTSVVLLHALAAGYHQWVRRDGTLERMLGRRQRR,failed
14,MTHTITIVGLGNYGIDELPLGIYRFLEKESKVYARTLNHPVINTLKKEIEFESFDSIYEAHDRFEDVYEAIVTSLIELAQSEDIVYAVPGHPRVAETTTVKLLEYSHFNKDISVKVLGGKSFIDDIFEAVDVDPNDGFTLLDGTSLKESALNVRTNTVITQVYSVMIAADLKLTLMERYPDDFNVKIITGSHSDGAHVIECPLYEIDRYDDYFNNLTSLFIPKINEDTLLYQDFDYAVQTIDLLVDNEKGCPWDKVQTHDSLKRYLLEETFELFEAIDNEDDWHMIEELGDILLQVLLHSSIGKKEGYIDIKEIIESLNTKMIHRHPHIFGNAHVTSQEDLKDIWSRAKEKEGKVPRVKFEKVFADHFLKLYDKTKNRQFDEDDLKQFLQQGEKNS,failed
15,MTIFVLSSLLAILLAVAIYNSEPSSYAHRSPTYGIGYVFVYIIAAFLFSFVIIYLGRKKKLRIFKVIYSIVVAYVIFYVFLILLSIFLYNVYAIFTVSIVVAIVFFYMILFRNEWYVTDLAGFFLSVGISSIWGITFGVWAAVAFLIAFEIYDYIAVYKTRHMISLARYAVDSDLPMLFVLPENSGFTMRGLSFDNRGDGNVLMIGFGDIALPSIMVVSSAIYGISHILFFTVLPLAGGLIGMAVLYFWNRDRPAPGLPYINTGTIAGFLIAFLAFRVF,failed
16,MTIFYYSFIILALLACLTVSFRIKKQQYLILYLFVIVLLSLLAGLRYDNADYENYLEIFKNPWEVSPDKGFSAFVLIVRWFTTSPIYMFLPVAIIAVSLNISSYRKYSPYLFVSVLFYFVHSFLLKEYVQIRAGLSCAICLYAIRYIEYKSLWKYIACMVIAMSIHMSSIIFFPMFWVYYFMKNKSNSCLMYFLLLSFIIGTLYPFGQVIKAYVPFLDETSRIATYANWDQFNNEIGILTNFTTLKQIILCVLCYIYWTRLKEVISCFSVLYLAYVLSTCWLMLFNDFVIIGARMATFLSVGEPIFFAGFLCLFNKQSRILVTLFFIIISCIIMDVNLHTKNLGEFKLYPLTSLF,failed
17,MTIGPLALVISLSQQMCVYLVVAYLLSKTPLFIPLVHVTIRLPHKAACYAIFSLFCIMGTYFGLRIDDSIANTRAIGAVLGGMLGGPSVGLAVGLTGGLHRYSMGGFTALACAISTTAEGLIGGLVHRYLVSRGQTGKLFQPLVVGLVTLFAEVCQMLIIILVARPAVNAVHLVETIALPMLVANSVGAAMFMTILLDRRTMFETQSSVFSAKALKIAARAEGALRSGFNRENSMRVARIIYEETGVGAVAITDRDKILAFIGIGDDHHKPGMAVTSLQTLESIRENRVMYADGNEVAYQCSISPTCPLGAALVIPLVDEGEQVIGTIKLYEPKTRLFSTINRTLGEGVARLLSTQILAGRYEQQRQLLAQSEIKLLHAQVNPHFLFNALNTLSAVIRLDPDHARHLVQSLSTFFRKNLKRTSEQVTLNDEVEQVSAYLEIELARFGDRLSVDFNVPADLGTATLPTFSLQPLVENAIKHGTAQLLGDGRIGVSAERQGGDLVVRVEDNAGLYERRPGGDGLGMNLVDRRIRARYGQGYGLSVECERDVVTRVILRVPFDPSPAGVASPAFEKVGP,failed
18,MTIHWCGTGLSAIPGLRRLIEAGHALTVWNRTVEKARAELGDLTDDIRAFDIDALGAVLAKGDVVVSMLPGDWHVPLAELAIAKGTHFVSSSYIAPEMRALDERAREAGVSLVNEIGLDPGIDHLMAHELVADYRASDAFDAQNHLSFISYCGGIPKHPNPFRYKFSWSPLGVLKALRSPSRSIRDYAPLDVARPWDAISSYTAPLPTPESFEVYPNRDSLPFMGQYHFKEHWPVKEFVRGTLRLNGWADAWGDVFREIETLSGPEGDARLKEMSDQFWAENAYDQGEPDRVVLCVGLKAEKDGREVWHKSYVMDAWGDARGTAMARLVSIPVSLAVEAVLNREIPAGVHAASSDPKLLARWMAEVATLAQHLQIVDHTA,failed
